Reference: FireProtDB (doi:10.1093/protein/gzl019)

B1: Cold shock protein CspB, P41016 (parent)
chain: MQRGKVKWFNNEKGYGFIEVEGGSDVFVHFTAIQGEGFKTLEEGQEVSFEIVQGNRGPQAANVVKL

Variants of: B1
Settings: Bacillus caldolyticus, pH 7, Thermal, Na cacodylate/HCl 0.1 M, reversible: Yes, structure 1C9O, whole UniProt chain shown

Variant | ddG of mutation (higher = less stable) (75 °C, CD, NaCl 0-2 M) [kcal/mol] | heat capacity change of unfolding (75 °C, CD, NaCl 0-2 M) [kcal/mol/K] | ddG of mutation (higher = less stable) (75 °C, CD, NaCl 2 M) [kcal/mol] | heat capacity change of unfolding (75 °C, CD, NaCl 2 M) [kcal/mol/K] | ddG of mutation (higher = less stable) (75 °C, CD) [kcal/mol] | heat capacity change of unfolding (75 °C, CD) [kcal/mol/K] | Tm (CD) [°C] | change of melting temperature, mutant - wild type (higher = more stable) (CD) [°C] | heat capacity change of unfolding (CD) [kcal/mol/K] | unfolding enthalpy (van 't Hoff) (CD) [kcal/mol] | ddG of mutation (higher = less stable) (75 °C, DSC, NaCl 0-2 M) [kcal/mol] | heat capacity change of unfolding (75 °C, DSC, NaCl 0-2 M) [kcal/mol/K] | ddG of mutation (higher = less stable) (75 °C, DSC, NaCl 2 M) [kcal/mol] | heat capacity change of unfolding (75 °C, DSC, NaCl 2 M) [kcal/mol/K] | ddG of mutation (higher = less stable) (75 °C, DSC) [kcal/mol] | heat capacity change of unfolding (75 °C, DSC) [kcal/mol/K] | Tm (DSC) [°C] | change of melting temperature, mutant - wild type (higher = more stable) (DSC) [°C] | heat capacity change of unfolding (DSC) [kcal/mol/K] | unfolding enthalpy (calorimetric) (DSC) [kcal/mol]
E21K | 0.43 | 0.96 | -0.17 | 0.96 | 0.26 | 0.96 | 75.4 | -1.5 | 0.96 | 49 | – | – | – | – | – | – | – | – | – | –
H29E | – | – | – | – | – | – | – | – | – | – | 0.29 | 0.96 | 0.48 | 0.96 | 0.76 | 0.96 | – | – | – | –
E36K | 0.98 | 0.96 | -0.79 | 0.96 | 0.19 | 0.96 | 76 | -0.9 | 0.96 | 45.6 | – | – | – | – | – | – | – | – | – | –
E50K | 0.76 | 0.96 | -0.26 | 0.96 | 0.5 | 0.96 | 73.5 | -3.4 | 0.96 | 43.3 | – | – | – | – | – | – | – | – | – | –
E46K | – | – | – | – | – | – | – | – | – | – | 0.43 | 0.96 | 0.22 | 0.96 | 0.65 | 0.96 | 74 | -2.9 | 0.96 | 114
E12K | 0.1 | 0.96 | 0.29 | 0.96 | 0.43 | 0.96 | – | – | – | – | – | – | – | – | – | – | – | – | – | –
R56E | -0.53 | 0.96 | -0.24 | 0.96 | -0.76 | 0.96 | – | – | – | – | – | – | – | – | – | – | – | – | – | –
N55K | 0.29 | 0.96 | -0.19 | 0.96 | -0.1 | 0.96 | 77.7 | 0.8 | 0.96 | 55.2 | – | – | – | – | – | – | – | – | – | –
